± gives the standard deviation of the averaged measurements.
Test system: Saccharomyces cerevisiae
Test: protein stability index of tFT-peptide fusion (C-terminal peptide) (PSI (0-1 scale)); higher = more stable (slower turnover)
Settings: genetic background: wild type; temperature: 30 C
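Note: PSI is a weighted mean of sequencing reads over stability bins, variants kept only with over 10 reads, mCherry proximal and sfGFP distal, peptide attached via GGGS linker.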

LYGILSCNSGCG and LYKYPKRCVDIG are within error of each other in protein stability index: 0.672 ± 0.035 for the first, 0.676 ± 0.057 for the second.

Compared with LYRFVSVLSDVH, LYRRLLCYPKTR is higher in protein stability index: 0.577 ± 0.012 for the first, 0.675 ± 0.0043 for the second.

LYSDLLTDDKNC and LYSGIAVSATSL are within error of each other in protein stability index: 0.666 ± 0.023 for the first, 0.734 ± 0.048 for the second.

LYTENSDLDRVF and LYWAYLGASVLL are within error of each other in protein stability index: 0.657 ± 0.039 for the first, 0.658 ± 0.013 for the second.

First: MAFKLFPFGRNL
Second: MAVYLKYSLLRL
The protein stability index of the first is higher: 0.73 ± 0.028 for the first, 0.515 ± 0.037 for the second.

MCNLSLSCEGLG and MCVFGLFCSCFD are within error of each other in protein stability index: 0.665 ± 0.045 for the first, 0.586 ± 0.082 for the second.

MCWGSAEAMGFR and MEGRVARAYSDE are within error of each other in protein stability index: 0.663 ± 0.014 for the first, 0.688 ± 0.04 for the second.

Compared with MFCRSPSYFPTV, MFTFIQRPVAQV is lower in protein stability index: 0.739 ± 0.035 for the first, 0.6357 ± 0.0054 for the second.

MGAAWNYANFGL and MGLVVGILVGHR are within error of each other in protein stability index: 0.7011 ± 0.0059 for the first, 0.647 ± 0.098 for the second.

MGLYSNTRNWGS and MKGELRHRWCPL are within error of each other in protein stability index: 0.682 ± 0.034 for the first, 0.71 ± 0.046 for the second.

MKRLTCGGFNLE and MKSRQKPESGPR are within error of each other in protein stability index: 0.704 ± 0.03 for the first, 0.6899 ± 0.0056 for the second.

Going from MLLSVDWAGDEI to MLSFTQRYYSAI, the protein stability index falls from 0.796 ± 0.11 to 0.64 ± 0.03.

Going from MLSWKASWRQPV to MPGYLIRPPVIS, the protein stability index rises from 0.664 ± 0.021 to 0.709 ± 0.0078.

MQEMLPSRPIRH and MQLREIIMIEKS are within error of each other in protein stability index: 0.69 ± 0.029 for the first, 0.693 ± 0.043 for the second.

Compared with MQSRWAQVEGKE, MRSLLDPLSNSC is higher in protein stability index: 0.673 ± 0.055 for the first, 0.7804 ± 0.0065 for the second.

MSMVVCHGGGGL and MSRPGEGSYIGD are within error of each other in protein stability index: 0.663 ± 0.017 for the first, 0.652 ± 0.017 for the second.

First: MSSGGSIYMVRT
Second: MTMGSIGNFDQG
The protein stability index of the first is higher: 0.723 ± 0.018 for the first, 0.611 ± 0.073 for the second.

MVARFGNEFMFL and MVEFWDLPGRSC are within error of each other in protein stability index: 0.695 ± 0.057 for the first, 0.744 ± 0.081 for the second.

Compared with MVGLTTEFGSDG, MVSFEWCLARSY is lower in protein stability index: 0.667 ± 0.015 for the first, 0.501 ± 0.054 for the second.

First: MVTRSLLLLLHG
Second: MWRWRAHVDRFR
The protein stability index of the first is lower: 0.599 ± 0.053 for the first, 0.6831 ± 0.0058 for the second.

First: MYPAYNRVRFEL
Second: MYRSLPRLKQTY
The protein stability index of the first is lower: 0.657 ± 0.032 for the first, 0.721 ± 0.031 for the second.

NAGHTGPYADGN and NAYRLSCGDNTN are within error of each other in protein stability index: 0.669 ± 0.043 for the first, 0.683 ± 0.027 for the second.

Going from NCEVYVGLVLAD to NDGLRRLICGGT, the protein stability index rises from 0.597 ± 0.028 to 0.68 ± 0.022.

NDKPKTTQKRTP and NDLYDVLKYLFN are within error of each other in protein stability index: 0.718 ± 0.0092 for the first, 0.712 ± 0.086 for the second.

First: NEGGGGRGETVE
Second: NEIRNKETETVM
The protein stability index of the first is lower: 0.613 ± 0.021 for the first, 0.665 ± 0.023 for the second.

First: NEPEKGQRKRRE
Second: NFHVRFVPDGGR
The protein stability index of the first is higher: 0.8051 ± 0.0073 for the first, 0.67 ± 0.021 for the second.

Compared with NFRHSVTTSEVN, NGCCLVHAETGP is lower in protein stability index: 0.737 ± 0.013 for the first, 0.676 ± 0.032 for the second.

NGILRGATYQDV and NGLGKGKTKGEI are within error of each other in protein stability index: 0.77 ± 0.067 for the first, 0.625 ± 0.1 for the second.

NGMVDDQSEVNR and NHRANSNPRLRY are within error of each other in protein stability index: 0.682 ± 0.074 for the first, 0.731 ± 0.0095 for the second.

NIAPPNHASIVL and NINNKRNHIHLK are within error of each other in protein stability index: 0.695 ± 0.014 for the first, 0.648 ± 0.075 for the second.

NIRSRKYMLRKS and NKKDHTLTKKRT are within error of each other in protein stability index: 0.744 ± 0.085 for the first, 0.661 ± 0.063 for the second.

NKKFTKQTCKPK and NKKKYEIKLIME are within error of each other in protein stability index: 0.663 ± 0.0011 for the first, 0.641 ± 0.06 for the second.

NKKNKKRIGRNT and NKNTEMNKTQWR are within error of each other in protein stability index: 0.736 ± 0.034 for the first, 0.702 ± 0.03 for the second.

NKRKKKRTEPQP and NKTKKKKKKKRG are within error of each other in protein stability index: 0.661 ± 0.013 for the first, 0.659 ± 0.061 for the second.

NKTRRCTAHVGG and NKYRKNMKSSVP are within error of each other in protein stability index: 0.679 ± 0.054 for the first, 0.671 ± 0.019 for the second.

NLGFTTSWSFDL and NLMTPAWTNFSS are within error of each other in protein stability index: 0.766 ± 0.066 for the first, 0.756 ± 0.077 for the second.

NLRESRSLKGVI and NLRSSTSKNNKR are within error of each other in protein stability index: 0.73 ± 0.016 for the first, 0.659 ± 0.079 for the second.

Compared with NLTKTLNNDIIK, NLVSCFSSCGSV is lower in protein stability index: 0.68183 ± 0.00011 for the first, 0.628 ± 0.028 for the second.

Compared with NLYLEKLLHSEP, NMGRCEGGKTAR is lower in protein stability index: 0.715 ± 0.018 for the first, 0.643 ± 0.016 for the second.

NMIIPEAVSLSL and NMQRKSRNQIID are within error of each other in protein stability index: 0.672 ± 0.026 for the first, 0.707 ± 0.074 for the second.

NNYRKKKHNYKK gave a protein stability index of 0.697 ± 0.011.

Source: the supplement of paper PMC10724198
